Measurements from PMC10786891, “Massively parallel profiling of RNA-targeting CRISPR-Cas13d”.
Residue numbers refer to the chain shown, from its start. In names and notes the source's numbering stands.

T1: EsCas13d, nuclease-dead (Eubacterium siraeum, UniProt B0MS50, R295A;H300A;R849A;H854A)
T1 sequence: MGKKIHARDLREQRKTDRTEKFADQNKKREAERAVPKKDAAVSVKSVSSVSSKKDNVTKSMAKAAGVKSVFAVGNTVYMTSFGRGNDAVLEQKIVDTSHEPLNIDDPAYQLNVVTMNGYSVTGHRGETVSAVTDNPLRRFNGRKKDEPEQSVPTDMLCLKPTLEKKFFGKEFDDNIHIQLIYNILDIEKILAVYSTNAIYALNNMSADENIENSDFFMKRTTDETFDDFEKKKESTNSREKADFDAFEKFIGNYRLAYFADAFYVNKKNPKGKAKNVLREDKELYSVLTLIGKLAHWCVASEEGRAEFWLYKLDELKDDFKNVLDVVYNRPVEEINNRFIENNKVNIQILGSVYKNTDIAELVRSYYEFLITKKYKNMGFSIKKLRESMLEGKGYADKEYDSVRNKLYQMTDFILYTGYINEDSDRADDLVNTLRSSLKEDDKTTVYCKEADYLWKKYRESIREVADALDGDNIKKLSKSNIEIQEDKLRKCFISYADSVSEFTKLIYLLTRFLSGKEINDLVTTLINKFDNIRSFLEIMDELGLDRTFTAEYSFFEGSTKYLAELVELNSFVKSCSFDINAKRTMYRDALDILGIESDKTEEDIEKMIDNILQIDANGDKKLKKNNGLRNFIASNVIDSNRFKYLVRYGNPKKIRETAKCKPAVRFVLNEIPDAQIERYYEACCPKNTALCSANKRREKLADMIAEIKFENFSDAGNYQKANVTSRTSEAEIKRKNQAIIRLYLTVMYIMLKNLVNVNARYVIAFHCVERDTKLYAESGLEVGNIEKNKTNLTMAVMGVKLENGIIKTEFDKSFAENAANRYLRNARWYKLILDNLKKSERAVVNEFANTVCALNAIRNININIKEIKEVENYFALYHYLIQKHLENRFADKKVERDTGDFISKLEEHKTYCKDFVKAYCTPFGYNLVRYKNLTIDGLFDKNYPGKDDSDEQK

B1: target 1 insA 3' of 8,insA 3' of 8 (mixed)
RNA 1: CACCCGUGCAAAAAUGCAGGGGUCUAAAACUGAGCGGAUAACCUCUCUAUGG
RNA 2: GGGAAUGGAUCCACAUCUACGAAUUCGUACCAUAGAGAGGUUAUAACCGCUCACCGAGAUCGGAAGAGCACACGU
B2: target 1 insU 3' of 12,insC 3' of 1 (mixed)
RNA 1: B1 RNA 1
RNA 2: GGGAAUGGAUCCACAUCUACGAAUUCGUACCAUAGAGAGGUUUAUCCGCUCACCCGAGAUCGGAAGAGCACACGU
B3: target 1 A1C,C2G (mixed)
RNA 1: B1 RNA 1
RNA 2: GGGAAUGGAUCCACAUCUACGAAUUCGUACCAUAGAGAGGUUAUCCGCUGCCCGAGAUCGGAAGAGCACACGU
B4: target 1 C2G (mixed)
RNA 1: B1 RNA 1
RNA 2: B3 RNA 2 with C51A
B5: target 2 MT 5'PFS ACC 3'PFS UAA (mixed)
RNA 1: CACCCGUGCAAAAUUGCAGGGGUCUAAAACCUUCUCCAAAUUGUUUCAUCCU
RNA 2: GGGAAUGGAUCCACAUCUACGAAUUCACCAGGAUGAAACAAUUUGGAGAAGUAAAGAUCGGAAGAGCACACGU
B6: target 2 MT 5'PFS AUU 3'PFS AAG (mixed)
RNA 1: B5 RNA 1
RNA 2: B5 RNA 2 with C28U, C29U, U52A, A54G
B7: target 2 MT 5'PFS UGG 3'PFS ACU (mixed)
RNA 1: B5 RNA 1
RNA 2: B5 RNA 2 with A27U, C28G, C29G, U52A, A53C, A54U
B8: target 2 MT 5'PFS AUU 3'PFS AAU (mixed)
RNA 1: B5 RNA 1
RNA 2: B5 RNA 2 with C28U, C29U, U52A, A54U
B9: target 2 MT 5'PFS GCC 3'PFS UAU (mixed)
RNA 1: B5 RNA 1
RNA 2: B5 RNA 2 with A27G, A54U
B10: target 2 MT 5'PFS UGG 3'PFS ACG (mixed)
RNA 1: B5 RNA 1
RNA 2: B5 RNA 2 with A27U, C28G, C29G, U52A, A53C, A54G
B11: target 2 MT 5'PFS CGC 3'PFS AUG (mixed)
RNA 1: B5 RNA 1
RNA 2: B5 RNA 2 with A27C, C28G, U52A, A53U, A54G
B12: target 2 MT 5'PFS CGC 3'PFS AUC (mixed)
RNA 1: B5 RNA 1
RNA 2: B5 RNA 2 with A27C, C28G, U52A, A53U, A54C
B13: target 2 MT 5'PFS AGG 3'PFS CAU (mixed)
RNA 1: B5 RNA 1
RNA 2: B5 RNA 2 with C28G, C29G, U52C, A54U
B14: target 2 MT 5'PFS AGA 3'PFS UGU (mixed)
RNA 1: B5 RNA 1
RNA 2: B5 RNA 2 with C28G, C29A, A53G, A54U
B15: target 2 MT 5'PFS GCA 3'PFS UUA (mixed)
RNA 1: B5 RNA 1
RNA 2: B5 RNA 2 with A27G, C29A, A53U
B16: target 2 MT 5'PFS CUA 3'PFS UCA (mixed)
RNA 1: B5 RNA 1
RNA 2: B5 RNA 2 with A27C, C28U, C29A, A53C
B17: target 2 MT 5'PFS UGG 3'PFS ACC (mixed)
RNA 1: B5 RNA 1
RNA 2: B5 RNA 2 with A27U, C28G, C29G, U52A, A53C, A54C
B18: target 2 MT 5'PFS CGC 3'PFS AUA (mixed)
RNA 1: B5 RNA 1
RNA 2: B5 RNA 2 with A27C, C28G, U52A, A53U
B19: target 2 MT 5'PFS GGU 3'PFS CAC (mixed)
RNA 1: B5 RNA 1
RNA 2: B5 RNA 2 with A27G, C28G, C29U, U52C, A54C
B20: target 2 MT 5'PFS GGU 3'PFS CAG (mixed)
RNA 1: B5 RNA 1
RNA 2: B5 RNA 2 with A27G, C28G, C29U, U52C, A54G
B21: target 2 MT 5'PFS GAU 3'PFS UCU (mixed)
RNA 1: B5 RNA 1
RNA 2: B5 RNA 2 with A27G, C28A, C29U, A53C, A54U
B22: target 2 MT 5'PFS CUC 3'PFS CCG (mixed)
RNA 1: B5 RNA 1
RNA 2: B5 RNA 2 with A27C, C28U, U52C, A53C, A54G
B23: target 2 MT 5'PFS CUA 3'PFS UCU (mixed)
RNA 1: B5 RNA 1
RNA 2: B5 RNA 2 with A27C, C28U, C29A, A53C, A54U
B24: target 2 MT 5'PFS ACA 3'PFS ACA (mixed)
RNA 1: B5 RNA 1
RNA 2: B5 RNA 2 with C29A, U52A, A53C
B25: target 2 MT 5'PFS CUU 3'PFS UUU (mixed)
RNA 1: B5 RNA 1
RNA 2: B5 RNA 2 with A27C, C28U, C29U, A53U, A54U
B26: target 2 MT 5'PFS UGC 3'PFS UUA (mixed)
RNA 1: B5 RNA 1
RNA 2: B5 RNA 2 with A27U, C28G, A53U
B27: target 2 MT 5'PFS GGU 3'PFS CAU (mixed)
RNA 1: B5 RNA 1
RNA 2: B5 RNA 2 with A27G, C28G, C29U, U52C, A54U
B28: target 2 MT 5'PFS AUU 3'PFS UAU (mixed)
RNA 1: B5 RNA 1
RNA 2: B5 RNA 2 with C28U, C29U, A54U
B29: target 2 MT 5'PFS AUG 3'PFS UUU (mixed)
RNA 1: B5 RNA 1
RNA 2: B5 RNA 2 with C28U, C29G, A53U, A54U
B30: target 2 MT 5'PFS GCC 3'PFS UAA (mixed)
RNA 1: B5 RNA 1
RNA 2: B5 RNA 2 with A27G
B31: target 2 MT 5'PFS AUU 3'PFS AAA (mixed)
RNA 1: B5 RNA 1
RNA 2: B5 RNA 2 with C28U, C29U, U52A
B32: target 2 MT 5'PFS CUA 3'PFS UCC (mixed)
RNA 1: B5 RNA 1
RNA 2: B5 RNA 2 with A27C, C28U, C29A, A53C, A54C
B33: target 2 MT 5'PFS CUC 3'PFS CCA (mixed)
RNA 1: B5 RNA 1
RNA 2: B5 RNA 2 with A27C, C28U, U52C, A53C
B34: target 2 MT 5'PFS CUC 3'PFS UUG (mixed)
RNA 1: B5 RNA 1
RNA 2: B5 RNA 2 with A27C, C28U, A53U, A54G
B35: target 2 MT 5'PFS CUC 3'PFS CCU (mixed)
RNA 1: B5 RNA 1
RNA 2: B5 RNA 2 with A27C, C28U, U52C, A53C, A54U
B36: target 2 MT 5'PFS UGG 3'PFS ACA (mixed)
RNA 1: B5 RNA 1
RNA 2: B5 RNA 2 with A27U, C28G, C29G, U52A, A53C
B37: target 2 MT 5'PFS GGU 3'PFS CAA (mixed)
RNA 1: B5 RNA 1
RNA 2: B5 RNA 2 with A27G, C28G, C29U, U52C
B38: target 2 MT 5'PFS UGC 3'PFS UUC (mixed)
RNA 1: B5 RNA 1
RNA 2: B5 RNA 2 with A27U, C28G, A53U, A54C

Biological target: T1, EsCas13d, nuclease-dead
Experiment: crRNA (strand 1, pre-loaded); Mg2+; 40 mM Tris-HCl pH 7.5, 150 mM NaCl, 6 mM MgCl2, 1 mM DTT, 0.1% Tween-20, 0.2 mg/ml BSA; 25 C; 10 min per concentration, then washed
Conditions: tags: His6-TwinStrep-SUMO cleaved; N-terminal SNAP kept (SNAP-Surface 488); label: 3' end held by stalled T7 RNA polymerase

Binder | Kd [nM]
B1 | 32.2 ± 3.2
B2 | 8.9 ± 0.7
B3 | 35 ± 4
B4 | 8.3 ± 0.6
B5 | ~12
B6 | 5.6 ± 0.6
B7 | 9.5 ± 1.3
B8 | 7.1 ± 1.4
B9 | 22 ± 4
B10 | 5.5 ± 0.4
B11 | 5 ± 0.6
B12 | 4.6 ± 0.6
B13 | 4.6 ± 0.6
B14 | 9.5 ± 1.2
B15 | 17 ± 4
B16 | 2.17 ± 0.35
B17 | 27 ± 6
B18 | 4 ± 0.5
B19 | 14.8 ± 2.2

Binder | Kd [nM]
B20 | 13 ± 1
B21 | 56 ± 15
B22 | 2.21 ± 0.24
B23 | 3.6 ± 0.4
B24 | 7.2 ± 2.3
B25 | 8.4 ± 0.7
B26 | ~27
B27 | 14.9 ± 2.3
B28 | 5.6 ± 0.4
B29 | 25 ± 6
B30 | 10.9 ± 2.7
B31 | 4.7 ± 0.5
B32 | 3.4 ± 0.5
B33 | 4.8 ± 0.7
B34 | 3.2 ± 0.5
B35 | 23 ± 7
B36 | 6 ± 0.7
B37 | 8.6 ± 1.4
B38 | ~40
